Biological target: Interleukin-1 receptor 1 on human umbilical vein endothelial cells (human (endogenous in HUVEC)) (UniProt P14778)
Chain of UniProt P14778 (P14778 18-569): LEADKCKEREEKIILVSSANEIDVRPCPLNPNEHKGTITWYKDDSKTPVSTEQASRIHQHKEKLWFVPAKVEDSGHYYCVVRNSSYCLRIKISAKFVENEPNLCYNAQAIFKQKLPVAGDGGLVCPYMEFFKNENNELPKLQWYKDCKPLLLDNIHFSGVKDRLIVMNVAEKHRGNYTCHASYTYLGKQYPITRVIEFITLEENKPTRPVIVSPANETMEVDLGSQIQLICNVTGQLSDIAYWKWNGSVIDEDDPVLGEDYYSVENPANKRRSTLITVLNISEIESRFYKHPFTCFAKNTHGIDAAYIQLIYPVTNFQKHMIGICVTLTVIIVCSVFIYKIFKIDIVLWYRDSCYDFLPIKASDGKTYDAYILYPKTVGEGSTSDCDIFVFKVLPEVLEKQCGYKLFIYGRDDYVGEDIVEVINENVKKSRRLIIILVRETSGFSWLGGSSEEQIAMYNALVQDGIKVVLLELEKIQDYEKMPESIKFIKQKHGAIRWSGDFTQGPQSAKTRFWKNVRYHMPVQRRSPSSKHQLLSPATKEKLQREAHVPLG

Q: “cell-surface Interleukin-1α on human primary monocytes (from UniProt P01583 113-271) (ligand)” was tested. Which percent VCAM1-positive HUVECs (flow cytometry) after 4h with unstimulated monocytes (% VCAM pos. cells) did it give?
A: The percent VCAM1-positive HUVECs (flow cytometry) after 4h with unstimulated monocytes (% VCAM pos. cells) was 2.5.

Q: What about the percent VCAM1-positive HUVECs (flow cytometry) after 4h with upLPS-stimulated monocytes (% VCAM pos. cells) of the same substance?
A: Its percent VCAM1-positive HUVECs (flow cytometry) after 4h with upLPS-stimulated monocytes (% VCAM pos. cells) is 25.9.

Q: And the percent VCAM1-positive HUVECs (flow cytometry) after 4h with upLPS-stimulated monocytes, HUVECs pre-treated 1h with neutralizing IL1R1 antibody (10 µg/ml, AB-269-NA, R&D Systems) (% VCAM1 pos. cells)?
A: The percent VCAM1-positive HUVECs (flow cytometry) after 4h with upLPS-stimulated monocytes, HUVECs pre-treated 1h with neutralizing IL1R1 antibody (10 µg/ml, AB-269-NA, R&D Systems) (% VCAM1 pos. cells) was 18.6.

Q: And the percent adhesion of calcein-labeled, LPS-pre-stimulated monocytes to HUVECs (remaining fluorescence after washing)?
A: The percent adhesion of calcein-labeled, LPS-pre-stimulated monocytes to HUVECs (remaining fluorescence after washing) was 6.7%.

Q: What about the percent adhesion of calcein-labeled, non-stimulated monocytes to HUVECs (remaining fluorescence after washing) of the same substance?
A: Its percent adhesion of calcein-labeled, non-stimulated monocytes to HUVECs (remaining fluorescence after washing) is 3.5%.
